# According to article PMC4589789, “Anti-interleukin-6 therapy through application of a monogenic protein inhibitor via gene delivery” (Scientific Reports, 2015):
# Columns and labels:
# murine IL-6 (mouse) [1] = biological target: murine IL-6 (mouse) (UniProt P08505)
# murine IL-6 (mouse) [2] = biological target: murine IL-6 (mouse) (UniProt P08505); remark: listed apart in the source
# [3] = biological target: the molecule itself; assay: SDS-PAGE under non-reducing and reducing conditions; purified mIL-6-RFP-Fc on 7.5% SDS/PAGE, Coomassie staining and Western blotting; disulfide-linked dimer versus monomer
# murine IL-6 (mouse), sequence (P08505 25-211): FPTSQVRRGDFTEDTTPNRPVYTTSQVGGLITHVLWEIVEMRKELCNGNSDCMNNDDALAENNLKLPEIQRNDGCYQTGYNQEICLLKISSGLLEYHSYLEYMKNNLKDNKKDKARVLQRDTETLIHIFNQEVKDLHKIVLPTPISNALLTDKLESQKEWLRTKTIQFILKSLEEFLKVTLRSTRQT
binder,measurement,setting,value
mIL-6-RFP-Fc (murine IL-6 receptor fusion protein with engineered mIgG2a Fc-fragment and 3V5-3HA tag) (Fc fusion) QLLEPCGYIYPEFPVVQRGSNFTAICVLKEACLQHYYVNASYIVWKTNHAAVPREQVTVINRTTSSVTFTDVVLPSVQLTCNILSFGQIEQNVYGVTMLSGFPPDKPTNLTCIVNEGKNMLCQWDPGRETYLETNYTLKSEWATEKFPDCQSKHGTSCMVSYMPTYYVNIEVWVEAENALGKVSSESINFDPVDKVKPTPPYNLSVTNSEELSSILKLSWVSSGLGGLLDLKSDIQYRTKDASTWIQVPLEDTMSPRTSFTVQDLKPFTEYVFRIRSIKDSGKGYWSDWSEEASGTTYEDLVLGSCRALEVANGTVTSLPGATVTLICPGKEAAGNVTIHWVYSGSQNREWTTTGNTLVLRDVQLSDTGDYLCSLNDHLVGTVPLLVDVPPEEPKLSCFRKNPLVNAICEWRPSSTPSPTTKAVLFAKKINTTNGKSDFQVPCQYSQQLKSFSCQVEILEGDKVYHIVSLCVANSVGSKSSHNEAFHSLKMVQPDPPANLVVSAIPGRPRWLKVSWQHPETWDPSYYLLQFQLRYRPVWSKEFTVLLLPVAQYQCVIHDALRGVKHVVQVRGKEELDLGQWSEWSPEVTGTPWIPRGPTIKPCPPCKCPAPNLEGGPSVFIFPPKIKDVLMISLSPIVTCVVVDVSEDDPDVQISWFVNNVEVHTAQTQTHREDYNSTLRVVSALPIQHQDWMSGKAFACAVNNKDLPAPIERTISKPKGSVRAPQVYVLPPPEEEMTKKQVTLTCMVTDFMPEDIYVEWTNNGKTELNYKNTEPVLDSDGSYFMYSKLRVEKKNWVERNSYSCSVVHEGLHNHHTTKSFSRTPGK,"IC50 of inhibition of IL-6 (37 pM)-dependent proliferation of Ba/F3-mgp130/mIL-6Rα cells, serial 2-fold dilutions from 3.9 nM, XTT assay after 60 h",murine IL-6 (mouse) [1],3.3e-05 μM
same,"attenuation of IL-6 (100 ng i.v.)-induced ERK1/2 phosphorylation in mouse kidney after pretreatment with mIL-6-RFP-Fc i.p. for 45 min (4, 12 or 40 μg; value for 40 μg, 70× molar excess)",murine IL-6 (mouse) [2],50%
same,"attenuation of IL-6 (100 ng i.v.)-induced ERK1/2 phosphorylation in mouse liver after pretreatment with mIL-6-RFP-Fc i.p. for 45 min (4, 12 or 40 μg; value for 40 μg, 70× molar excess)",murine IL-6 (mouse) [2],63%
same,"attenuation of IL-6 (100 ng i.v.)-induced STAT3 phosphorylation in mouse kidney after pretreatment with mIL-6-RFP-Fc i.p. for 45 min (4, 12 or 40 μg; value for 40 μg, 70× molar excess)",murine IL-6 (mouse) [2],80%
same,"attenuation of IL-6 (100 ng i.v.)-induced STAT3 phosphorylation in mouse liver after pretreatment with mIL-6-RFP-Fc i.p. for 45 min (4, 12 or 40 μg; value for 40 μg, 70× molar excess)",murine IL-6 (mouse) [2],12%
same,stoichiometry N,[3],2
